# Results: patent publication US20200247855A1, “THERAPY AND DIAGNOSTICS” (OXFORD UNIVERSITY INNOVATION LIMITED, priority 2017, published 2020)
# “Also recorded” adds a separate entry of the source.
# What was measured:
# [1] = test system: human CCL5 together with CXCL8, CXCL1, CCL3 or CCL2; assay: Biolayer interferometry polyvalent binding (association with CCL5, then CCL5 plus second chemokine); details: BLI, wavelength shift in association 2
# Text: FIG. 10. Polyvalent binding of CC and CXC chemokines to two-warhead evasins. […] This was followed by association with CCL5+CXCL8 (light grey trace), or with CCL5+CXCL1 (dark grey trace) or CCL5+CCL3 (black trace) (association 2), and then dissociated in buffer (dissociation).
# FIG. 11. Polyvalent binding of CC and CXC chemokines to two-warhead evasins. […] This was followed by association with CCL5+CXCL8 (light grey trace), or with CCL5+CXCL1 (dark grey trace) or CCL5+CCL2 (black trace) (association 2), and then dissociated in buffer (dissociation).
# The ability of 2-warhead evasins to engage in polyvalent binding of CC and CXC chemokines was further determined.
# CXCL11_HUMAN = target: T1, CXCL11_HUMAN (Homo sapiens, UniProt O14625); assay: Yeast surface display (YSD) FACS binding; details: FACS re-test; mean percent shift where several clones
# T1 sequence (O14625 22-94): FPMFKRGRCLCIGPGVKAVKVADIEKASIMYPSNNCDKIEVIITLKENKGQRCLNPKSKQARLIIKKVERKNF
# In short: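 Yeast clones displaying tick peptides were re-tested by FACS with labelled chemokine detected by streptavidin-Alexa conjugate. Binding was scored as % of peptide-expressing cells above a background set with streptavidin-Alexa alone, averaged over independent clones. In the screen tables, >3-fold over background mean fluorescence intensity was scored as binding.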
# CCL2_HUMAN = CCL2_HUMAN (Homo sapiens, UniProt P13500); assay: Biolayer interferometry (BLI) binding
# Sequence of CCL2_HUMAN (P13500 24-99): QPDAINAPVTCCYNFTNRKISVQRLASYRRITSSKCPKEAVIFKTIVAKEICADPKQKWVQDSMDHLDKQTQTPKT
# In short: (§1)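 Analyte: chemokine, screened at 300 nM then as a dose series for binders. Ligand: purified His-tagged tick evasin on Ni-NTA sensors. Kd obtained by fitting association, equilibrium and dissociation traces.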
# CCL4L1_HUMAN = target: T2, CCL4L1_HUMAN (Homo sapiens, UniProt Q8NHW4); assay: Biolayer interferometry (BLI) binding
# T2 sequence (Q8NHW4 24-92): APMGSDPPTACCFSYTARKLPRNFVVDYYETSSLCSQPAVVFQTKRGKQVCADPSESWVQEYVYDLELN
# In short: as §1
# CCL17_HUMAN = target: T3, CCL17_HUMAN (Homo sapiens, UniProt Q92583); assay: Biolayer interferometry (BLI) binding
# T3 sequence (Q92583 24-94): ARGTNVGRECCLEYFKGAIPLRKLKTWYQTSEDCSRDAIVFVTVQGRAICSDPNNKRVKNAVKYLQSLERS
# In short: as §1
# CCL22_HUMAN = target: T4, CCL22_HUMAN (Homo sapiens, UniProt O00626); assay: Biolayer interferometry (BLI) binding
# T4 sequence (O00626 25-93): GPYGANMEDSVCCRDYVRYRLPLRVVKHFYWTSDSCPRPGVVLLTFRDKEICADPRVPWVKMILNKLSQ
# In short: as §1
# CCL3_HUMAN = target: T5, CCL3_HUMAN (Homo sapiens, UniProt P10147); assay: Biolayer interferometry (BLI) binding
# T5 sequence (P10147 24-92): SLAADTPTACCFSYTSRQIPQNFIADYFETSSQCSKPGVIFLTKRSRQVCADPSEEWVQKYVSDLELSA
# In short: as §1
# CCL3L1_HUMAN = CCL3L1_HUMAN (Homo sapiens, UniProt P16619); assay: Biolayer interferometry (BLI) binding
# Sequence of CCL3L1_HUMAN (P16619 24-93): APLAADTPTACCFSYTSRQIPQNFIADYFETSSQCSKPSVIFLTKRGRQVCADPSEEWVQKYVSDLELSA
# In short: as §1
# CCL14_HUMAN = target: T6, CCL14_HUMAN (Homo sapiens, UniProt Q16627); assay: Biolayer interferometry (BLI) binding
# T6 sequence (Q16627 20-93): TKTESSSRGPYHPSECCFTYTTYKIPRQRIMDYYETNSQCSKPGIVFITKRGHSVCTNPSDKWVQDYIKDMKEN
# In short: as §1
# CCL5_HUMAN = target: T7, CCL5_HUMAN (Homo sapiens, UniProt P13501); assay: Biolayer interferometry (BLI) binding
# T7 sequence (P13501 24-91): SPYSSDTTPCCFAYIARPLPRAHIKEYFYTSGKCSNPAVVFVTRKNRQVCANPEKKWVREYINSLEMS
# In short: as §1
# CCL11_HUMAN = CCL11_HUMAN (Homo sapiens, UniProt P51671); assay: Biolayer interferometry (BLI) binding
# Sequence of CCL11_HUMAN (P51671 24-97): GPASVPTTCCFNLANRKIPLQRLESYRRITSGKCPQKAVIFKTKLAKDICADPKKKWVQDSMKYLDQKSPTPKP
# In short: as §1
# CCL8_HUMAN = target: T8, CCL8_HUMAN (Homo sapiens, UniProt P80075); assay: Biolayer interferometry (BLI) binding; details: read-out: Kd, CCL8_HUMAN
# T8 sequence (P80075 24-99): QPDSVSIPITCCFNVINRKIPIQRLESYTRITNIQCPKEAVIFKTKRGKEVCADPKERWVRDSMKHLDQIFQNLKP
# In short: as §1
# CCL4_HUMAN = target: T9, CCL4_HUMAN (Homo sapiens, UniProt P13236); assay: Biolayer interferometry (BLI) binding
# T9 sequence (P13236 24-92): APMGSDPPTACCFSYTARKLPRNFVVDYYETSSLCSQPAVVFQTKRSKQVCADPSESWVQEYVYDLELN
# In short: as §1
# CCL7_HUMAN = CCL7_HUMAN (Homo sapiens, UniProt P80098); assay: Biolayer interferometry (BLI) binding
# Sequence of CCL7_HUMAN (P80098 24-99): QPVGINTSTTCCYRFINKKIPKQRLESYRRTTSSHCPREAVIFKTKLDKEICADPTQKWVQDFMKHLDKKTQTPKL
# In short: as §1
# CCL1_HUMAN = target: T10, CCL1_HUMAN (Homo sapiens, UniProt P22362); assay: Biolayer interferometry (BLI) binding
# T10 sequence (P22362 24-96): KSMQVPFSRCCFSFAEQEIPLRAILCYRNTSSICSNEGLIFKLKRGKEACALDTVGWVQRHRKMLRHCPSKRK
# In short: as §1
# CCL18_HUMAN = target: T11, CCL18_HUMAN (Homo sapiens, UniProt P55774); assay: Biolayer interferometry (BLI) binding
# T11 sequence (P55774 21-89): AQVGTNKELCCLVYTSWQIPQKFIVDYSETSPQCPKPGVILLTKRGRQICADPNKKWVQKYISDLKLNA
# In short: as §1
# CCL13_HUMAN = CCL13_HUMAN (Homo sapiens, UniProt Q99616); assay: Biolayer interferometry (BLI) binding
# Sequence of CCL13_HUMAN (Q99616 17-98): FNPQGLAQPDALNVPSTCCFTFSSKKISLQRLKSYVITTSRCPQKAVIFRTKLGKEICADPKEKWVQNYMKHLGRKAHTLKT
# In short: as §1
# chemokines = details: list of chemokines bound, from the literature [18,20-22]; cited from earlier work
# CCL16_HUMAN = target: T12, CCL16_HUMAN (Homo sapiens, UniProt O15467); assay: Biolayer interferometry (BLI) binding
# T12 sequence (O15467 24-120): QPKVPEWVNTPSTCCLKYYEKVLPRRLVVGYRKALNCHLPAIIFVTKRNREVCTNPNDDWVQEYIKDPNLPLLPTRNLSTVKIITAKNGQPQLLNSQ
# In short: as §1
# CCL24_HUMAN = target: T13, CCL24_HUMAN (Homo sapiens, UniProt O00175); assay: Biolayer interferometry (BLI) binding
# T13 sequence (O00175 27-119): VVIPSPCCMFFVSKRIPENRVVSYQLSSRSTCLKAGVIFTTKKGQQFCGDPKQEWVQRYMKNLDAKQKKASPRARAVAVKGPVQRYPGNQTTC
# In short: as §1
Molecule,Polyvalent (simultaneous) binding of CC and CXC chemokines [1],Kd (CCL2_HUMAN) [nM],Kd (CCL4L1_HUMAN) [nM],Kd (CCL3_HUMAN) [nM],Kd (CCL3L1_HUMAN) [nM],Kd (CCL11_HUMAN) [nM],Kd (CCL8_HUMAN) [nM],Kd (CCL4_HUMAN) [nM],Kd (CCL7_HUMAN) [nM],Kd (CCL1_HUMAN) [nM],Kd (CCL18_HUMAN) [nM],Kd (CCL13_HUMAN) [nM],other results
"SEQ ID NO: 80: two-warhead evasin: P1156_IXORI linked via GGGGS linker to P991_AMBCA (protein, hybrid polypeptide, two-warhead evasin: P1156_IXORI linked via GGGGS linker to P991_AMBCA) ADDDNELFTVQYCGMNCTKDEGGTWTGCTGKKEGCKCYHESGKNYGLCLSTEYTDFSQYGNPSDSEIEAAKPKRSDTLSHGGGGSENGEGTTQPDYDNSTDYYNYEDFKCTCPAPHLNNTNGTVMKPIGCYYTCNVTRCTAPDTYPCYNLTEHQAKNLTTSPTTLCAVGNCDHGICVPNGTKELCFKAPNLEE",can associate simultaneously with CCL5 and either CXCL8 or CXCL1,,,,,,,,,,,,
"P942_IXORI: novel CXC-binding tick CKBP, Ixodes ricinus (protein, listed as Ixodes ricinus) NQLSGPQSSANSNEAVFCDTNCTQGTDEAWSGCRGDCFCVYVGNSTEGRCMMLSGDFDYSTPGAED",,,,,,,,,,,,,Chemokines bound in yeast surface display and % cells over threshold fluorescence: CXCL11_HUMAN (CXCL11_HUMAN): CXCL11_HUMAN 37%
"P974_AMBCA: tick CKBP, Amblyomma cajennense; ACA-01 stated identical (protein, Amblyomma cajennense, tick CKBP, Amblyomma cajennense; ACA-01 stated identical) ENTQQEEQDYDYGTDTCPFPVLANKTNKAKFVGCHQKCNGGDQKLTDGTACYVVERKVWDRMTPMLWYECPLGECKNGVCEDLRKKEDCRKGNGEEK",,93,23.2,7.97,13.1,17,2.58,30.2,41.2,70.5,17,22.9,"Kd (CCL17_HUMAN): 70.6 nM; Kd (CCL22_HUMAN): 16.5 nM; Kd (CCL14_HUMAN): 49.1 nM; Kd (CCL5_HUMAN): 160 nM; Previously described chemokine binding (chemokines): CCL11, CCL24,; also recorded: CCL26, CCL2,; also recorded: CCL8, CCL7"
"P546_AMBCA: tick CKBP, Amblyomma cajennense (protein, Amblyomma cajennense) ENTQQEEEDYDYGTDTCPFPVLANKTNKAKFVGCHQKCNGGDQKLTDGTACYVVERKVWDRMTPMLWYSCPLGECKNGVCEDLRKKEECRKGNGEEK",,83,8.9,15,15,8.7,1.3,27,90,160,16,13,Kd (CCL17_HUMAN): 70 nM; Kd (CCL22_HUMAN): 27 nM; Kd (CCL14_HUMAN): 28 nM
"P985_AMBPA: tick CKBP, Amblyomma parvum (protein, listed as Amblyomma parvum) DEESEELGASTDVDYEELDANCTCPAPALTSTRNNKHYPLGCIYNCSSYNCTIPDGTPCYVLTLGEVKEHLQIGSTVPNCTCGLCRNGTCVSNGTVEECFAVEEIEET",,17,21,8.9,7.5,8,6.5,46,61,8.3,430,89,Kd (CCL16_HUMAN): 45 nM; Kd (CCL5_HUMAN): 3.5 nM; Kd (CCL24_HUMAN): 41 nM
"SEQ ID NO: 73: two-warhead evasin: P991_AMBCA linked via GGGGS linker to P1156_IXORI (protein, hybrid polypeptide, two-warhead evasin: P991_AMBCA linked via GGGGS linker to P1156_IXORI) ENGEGTTQPDYDNSTDYYNYEDFKCTCPAPHLNNTNGTVMKPIGCYYTCNVTRCTAPDTYPCYNLTEHQAKNLTTSPTTLCAVGNCDHGICVPNGTKELCFKAPNLEEGGGGSADDDNELFTVQYCGMNCTKDEGGTWTGCTGKKEGCKCYHESGKNYGLCLSTEYTDFSQYGNPSDSEIEAAKPKRSDTLSH",can associate simultaneously with CCL5 and either CXCL8 or CXCL1,,,,,,,,,,,,
"SEQ ID NO: 81: two-warhead evasin: P1156_IXORI linked via GGGGS linker to P1243_AMBAM (protein, hybrid polypeptide, two-warhead evasin: P1156_IXORI linked via GGGGS linker to P1243_AMBAM) ADDDNELFTVQYCGMNCTKDEGGTWTGCTGKKEGCKCYHESGKNYGLCLSTEYTDFSQYGNPSDSEIEAAKPKRSDTLSHGGGGSRNHTEDNSTEYYDYEEARCACPARHLNNTNGTVLKLLGCHYFCNGTLCTAPDGYPCYNLTAQQVRTLTTYPNTSCAVGVCMKGTCVKNGTMEQCFKTP",can associate simultaneously with CCL5 and either CXCL8 or CXCL1,,,,,,,,,,,,
